Assay: soluble fraction after stress (log2 fold change); higher = more stays soluble; pooled small domains, quantitative proteomics
Conditions: stress: 50 degC
In short: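 Pooled custom libraries of small protein domains were measured in a high-throughput format, with quantitative proteomics as the read-out. Each library was stressed at 50°C. Aggregation propensity is given as the base-two logarithm of the fold change in how much of each protein stays soluble after the stress. Higher values mean a larger share of the protein remains in solution.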

Sequence	soluble fraction (log2)
HMEPTPREIVVQQLGYRGLEVLGNAEYQFPKETQIIILKLAELISSGSVTETLEGGKLLALFRGVGINVR	-1.59
HMADGKWTLTDAGYTFTYSDGRKARGTWEDIDGEWYHFDRNGIMETGWKTVGNIRYHFNQDGSL	-0.185
HMFINTVELGRAIKRRREELGLSLRDVADVTNVSASTLSRIENGTGKPDADNIARLTGWLDMPIDRVM	-0.0139
HMSQNISSTKLIPENIKIGMSVFVIPLQQKGIVQSLPNRSKEVLVQIGNAKINVKINNLKLIED	0.295
HMDFQTDVFISRFAELKKESGETNKDLQDVFELSLSALINYQTGKRIPDIAFLHKLAQHFGVSADYLLGLS	-0.549
HMTQTGEVIRWDAERGFGFIATADGRRHVFFHVRDFRGGAAPGVGLRVGFEEIQVGGKGPRAMDVRPL	-0.48
HMEDEFNQIASQKNVPSFLGKGKKEVINIAKKNKIKINLSGNGYVKRQIPAPGEVISHLDEVTIFLEPG	0.396
HMRLDPENFYIRAVTYYRNGDWQRALSQLDEAIKLGTAIEYPALQARIYLEQGMRDEFIAASEK	-1.71
HMKGVSFEEIERAVRTAQNPEADETAQQHAGMVFSRMEGNELFDKLVQSSSTIGKKITGLMDYYL	-0.0889
HMDEARLAVASNLIRLRTDAGMTQAELGEKLNYSDKTISKWERAEAIPDAFVLKQIGELFHVSVDFLLRTH	-0.37
HMEKVDAISQSILDVLKKNNGYLAVTDKSDPDEIYGLFQISKKTFKKAIGSLYRDRLISIEEEGIRLR	0.116
HMGIDAIDNFVSKIIMKIEGLGESEVPTSTIGKFIMEGLQYLDTVAYVRYASVYKNFKEAKDFEQFVGSL	-0.179
HMNKKAAYKDMAGYFAEMKSKDAADILSRLKDEDIIGIFNEMPRDMVAEMLQKMDRDKATTLTRKML	0.385
HMNPETPAQQAVRKRLIVSVQFYRRLKDTPLKAVWQVAARDTLVNGYNLFLKRNIHAFNDRTLSTPSALS	-0.0672
HMLEPGIAVLKTLMSQYRLGVADLPELGSKSNVSKLLNAVEGKKLTRQHIEALSKRFAVSPALF	-0.195
HMKRQDFEFLVNLLRQNAGWDFDEEQYFVVDKKISNFIREKGYASVEDLIDELKVGAKPLISQVVESLAL	-0.622
HMASRKTERINRLIDVLQHATSRVPASVLSKILGIGERSVRNYVSEVNEQGQFRIDSSSGGYRLVA	-0.147
HMLSAPMPGTVLEVHVKEGQRVREGQTLVVMEAMKMEHRVQAPRAGVVTKLHYSEGDRVDVGAILVEIG	0.0919
HMDGLAEQLFNILREELESGDYKPGQKLMSESALAQKYGVSRLTVRAAIARLSALDYVETRNGEGSFVKKR	0.0422
HMAKSDLNYLDFKSKLEAGEIAKASVIRNEDTFKVTLQNGEVYNVTSPDYEDFRKELLEAGVDIQVSK	0.114
HMTSVAGIERFLASGAIKGMGAATAKLIVEHFGADTLNMLDMYPERLTEIKGIGPKKATAIIEGYRELS	-0.751
HMAREFPGTIIKRGSRGPDVRWIQQHIGVKLVDGVFGRGTERAVKQFQSRRRLKADGIVGRQTWAAIHN	-0.999
HMSQEILSNQSIKDMIELGFEEQTIIDKIQTSTSDFDTTIEELKALKQLGASPTILSAMIKSIKK	0.285
HMDSISEQIYSIIKEEILLAKRKPGEQINPRKLADEFETSVMPIRDALNQLANEGLVIRKPRVGFFVR	0.0655
HMASFGDLSGLKRTYPPQGLPDASRIADFLIARNEGDLSVEQVKALERFLFEHPDHERTARLVAATRVPA	-0.0263
HMKRIHLSDEEKTDLESLHYSSNDGKQRDRIKAVLLRSEGWTVPMISQALRIHETTVTRYLNDYREGKLKN	0.00871

Sequence	soluble fraction (log2)
HMGEAYVVPNVKNKTLGEAQLALHNQKLEGLVVDSSYVKGLPDGMILDQNPAGGARVKEGRTIYLTITTS	0.00953
HMAPVEEWAKASVMEDPTLVTETMARIFAQQGQIGKARKAYRHLALTYPAKSTYFAAQLKKLNQR	-0.259
HMNDAARQTTDILQHVRSSGSISFRDLWRLFMPFMAYRDFDAAVKSLVAAGHIATTENERKELHLIAF	-0.542
HMADEDTILALAKEILASWPDKVEAYKNGNKGMLGLFMGELMKKSGGKANPKSASALIQKLLE	-0.0387
HMADVYFDGKFLGETPVTVAVSTTGKPAHEISLIRGGYEPWSTTYQGNPRPGQTATVMAILVHA	0.287
HMNETSRTRALNILGLKATATQEDIKKAYRSLAKEYHPDKLVGVSEGVKKISEEKFREINEAYEYLI	0.384
HMRFMRVSQSKSKNSTSLYIIESVYTKDNKHTTRIVKKLGTVEELSKEHEDPLAWAKEVAKQMTEEAEQN	-0.347
HMSSDLVDYLVKYVAIVDNQEIEIADSKIGTAELGTTVSEVAKTVGNYYPKATVLSVKITGRNQEIVFEY	-2.83
HMSMISLPNFVGKDIETVKAWAKENGITLIINKVEDSAKKDTVISQNPTNSDYSKILKGSAFTVNIAKE	0.0206
HMVSRQINVIPDDLAGLRLDQALAHLFPQHSRSRLKEWLLEDIIIVQGGPKRPKDIVSGGEIVEIKL	-0.0906
HMAVVIPDVKGMTIEEAAPFLAEKGIRYNIIDSVFSKDVDPGAIVEIVPTPGSKVKEGRIVFVTINAK	-0.538
HMPDDHFIRGYVTAVLEQVLKVPSIQVEVERGVVILRGDLPGEERQELLDAVSRIHGVARVEYIPL	-0.0295
HMRGHASVEIKRIVYKYKLTDQELAKITGMKASDFPIYHDHLQLILPKRYWARVLDALQNYEKEHES	-4.18
HMIRVVSIEDQPWFVAADVLKSLGMPTDKGVGKYLLALGSDERMLTTHGQIGGKGMAVTTIISESGLY	-0.46
HMDAINITTYKGQITLTGTKTGTLVGIYNTAGMLVKSMMSKGEKLYFDNLPSGVYIIKVGEEEPRKVQVI	-0.165
HMLVSFGDHLKRYIYERAGIEEPFGEVPQEIYRDIAVDSFRETYTPKSMNPTSTKLPALVNNWLIQ	-0.746
HMSQLETEEAKRIVLKDLLRLYNNYNIIELEEDEFDRFITYLNMPYDFLQKTSDYDLAVSIKRMYASY	-2.3
HMGDVSGFLRGVLADGPVPAKTVFSEASGAGYSRDQIQRAARKIGVERRKTGMAGGWVWELEP	0.014
HMYAVDTIHKGTITEMTDKGAVVSLGDNIDGFAPARQLVKEDGTTLKLGDTADFKVIEFSKATKRITLSH	0.286
HMLPSWLPTDAWEAFLEARVAMKARPTERAKGLLLGELSKLVSQGQDARAVLEQSVQRGWRGLFPVK	-1.52
HMERDVNQLTPRERDILKLIAQGLPNKMIARRLDITESTVKVHVKHMLKKMKLKSRVEAAVWVHQERI	-1.38
HMLKREDEVIVVAGKDKGKRGTITQLVGDDRVIVAGVNMVKRHTKPNPNLGQPGGIVEREASLHISNV	0.296
HMLASDYEEELSVLIKMSHKIAAGDDSLMDDFNDRVTMFESSYPINKATKDLTPVLERVNKFQT	-0.346
HMTVSGNIAGDYKDYLPQKTDVINGMTVTYRMVDDAVYLASWKHAGQNHVFLFNDPVSVERAREMI	-0.577
HMKVKGVYQLDNGYWGYRFTMLVNGKTVSQRRVKDESGNPFKTEKKAEKARLVAMAEEQTKANK	-2.11
HMTVSADQTAADAVIKLINAIGTVSENSGSAISAARSGYDALTDTQKKLVTNYNKLTQAEQVFSSLPS	0.203

Sequence	soluble fraction (log2)
HMGYGEQEAEATKYMSLHAIMSADETLSKMYTPENQHKLMTHVMEQNGIKNVKDYLTPPSELP	-0.102
HMGTVRFYNKERGFGFVVSDDGESVFLPAKALPDGVSDLSPGTRVDYGAALGKKGSQ	0.153
HMQMPLTMATMGEVNKIVKVGGNEETRRFLANLGFVAGAEVVVLSKIGGNVIVNVKDSRVAVNEDMARHIM	-0.997
HMIHIGAQEALGEFQDEEGNLTASKKEVVAALVKKSKEVSFPTSYEYEVAARMAADEYNDAGQRMA	-0.0641
HMEKLLTTRQSQIFELAKRKGYWNIPREISITQLAQLTGSSKSTISVMLHAIESKIVDTFYDEI	-3.2
HMSIDNALLTLIGKTGTAQTVLRPSGKVVIGDEVYDAVTAGEFIDKGSAIVVTRVEATQLYVEASEA	0.0555
HMRDRYEYLKELRLYLSPLGRTEEDRVIEYYAELIGDKIESGIPENGVLSQLGTPRELADKILAETQEY	-0.35
HMSVTVMVLRAAGDIQAGTEITDKHLATVEVGEYGLPEGIINDKDSILGKIALTDIAKGDYFFSQKLG	-0.134
HMQTPPGRYRHYKGGLYEVIATARHSETLEPMTVYRALYGEQGLWVRPAAMFAEDITLEGVRQPRFARI	-1.91
HMGHEEPITFDRLPQAAQTFLKTHFDTLTVAYIVADRKFMGVEYEVKYTDRTEVDFRSDGQWESV	0.0592
HMLSSNEIKEIFALFDKSNRGQVATSELGTLVRALNLNPTETEITDMQSKVDPKGQGSFTLDVLEKVVQD	0.206
HMNIGELINKKRTELGLTLEEVGNAVGVSKSTVKKWEDGFISNMRRDKISKLAKVLEMNPVSLITGE	0.0389
HMKIPPIMFVRAIMVAGRQSMAIMDIEGVGTGIIVRSGYSFSNGEGKVVRIGPDKVTVNWSGKHLDLAPG	-0.615
HMDRKEEIIIVTLKLASQIGLSNVSMEQIAKQVGIKKPSLYNHFKSKDEIIDAMYEYLREKSKN	-0.869
HMIKEVEYSQFLQMTDQGEVGKVEINEQENSILFTDKAEKNIYKTGMVEDAELSMRLYEAGIPFSGQI	-0.0245
HMEHQLLHMEKTIFEEIADDYPQLNHTKIRNVLAAFLFTNDDVFKRIADLSGGERGRVSLAKLMLSDA	-0.188
HMNTVSPAVSAQLRQELGGELNNANFQQLQQYLQAGQRDEAIVYLTSLGIESPRAVSIVNNAMDQIG	0.124
HMASAEDDLTRRARKLLTTSSMLKTLQPDTGERLQWLPQVVRLLAEGVEAPRIVVLIRRAMESG	-1.04
HMEDIAAIAQRIQGLRDIVGISVEEMAKALDISEQEYREYEKGETDFSFSFLYTVANVLGINITDLI	-0.709
HMVGIVQKTFEPTGIAAEELMKTLKSDKSLDFGNVQILATPKSSTSRQVVVVSGRANDVDRVMMVLSNLDS	-0.108
HMKMAKTIKEIAEEIGVSKQAVFKKIKQVPLSTEIEKFISTVDGKKLVSVDGENLIKQAFQR	0.325
HMQSRRTPASLVERVRQLNGQYQDKEIAELLNREGIKTAHGNEFNAKRIEMIRRHNGISKHSAQ	0.174
HMVRVSELAIEPRLVVEETATGFVGAVVRYANGLIELEDRHGAVRTFPLGPGYLVDGRPVSLVKPT	-0.371
HMSMDYYNILGVNRNASTGEIKKAYKRASMQHHPDRGGNSDEFIKVQQAYDTLSDNHKRQAYDNP	0.0774

From the domain aggregation screens of Martell et al. (2025)
